Literature values, collected in publication PMC2981439.

Molecular target: quinone MADH (Paracoccus denitrificans) (UniProt P22619)
UniProt P22619, sequence (P22619 58-188, chain 1 of 2): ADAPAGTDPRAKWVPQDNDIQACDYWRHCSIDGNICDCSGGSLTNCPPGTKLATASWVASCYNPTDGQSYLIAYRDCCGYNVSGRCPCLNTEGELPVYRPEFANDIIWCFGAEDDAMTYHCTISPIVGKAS
UniProt P22619, sequence (P29894 29-417, chain 2 of 2, further chain): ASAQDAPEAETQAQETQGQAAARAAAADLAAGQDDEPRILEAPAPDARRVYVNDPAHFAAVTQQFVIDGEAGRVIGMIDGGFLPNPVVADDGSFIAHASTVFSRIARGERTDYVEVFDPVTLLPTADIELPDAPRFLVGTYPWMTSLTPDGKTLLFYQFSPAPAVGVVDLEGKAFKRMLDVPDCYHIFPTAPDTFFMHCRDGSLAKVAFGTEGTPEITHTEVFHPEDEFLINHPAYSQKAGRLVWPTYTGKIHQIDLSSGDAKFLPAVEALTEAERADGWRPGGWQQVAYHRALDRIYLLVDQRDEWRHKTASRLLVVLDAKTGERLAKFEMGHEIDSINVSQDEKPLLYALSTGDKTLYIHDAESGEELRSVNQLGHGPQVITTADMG

## MauG (from UniProt Q51658)
  Kd: 10.1 µM
